{"source": "paper PMC12456132", "biological_target": "neuraminidase (NA) from A/Brisbane/02/2018 (H1N1), wild type (influenza A virus A/Brisbane/02/2018 (H1N1))", "experiment": "non-reducing SDS-PAGE", "data": [{"substance": "neuraminidase (NA) from A/Brisbane/02/2018 (H1N1), wild type (natural protein)", "values": [{"measurement": "stoichiometry N", "value": 2}]}]}
